Values of other authors, collected in article PMC6995525, “Structure of the PUB Domain from Ubiquitin Regulatory X Domain Protein 1 (UBXD1) and Its Interaction with the p97 AAA+ ATPase” (Biomolecules, 2019).

Molecular target: p97 last 10 residues (Homo sapiens) (UniProt P55072)
Sequence (P55072 whole entry, looked up): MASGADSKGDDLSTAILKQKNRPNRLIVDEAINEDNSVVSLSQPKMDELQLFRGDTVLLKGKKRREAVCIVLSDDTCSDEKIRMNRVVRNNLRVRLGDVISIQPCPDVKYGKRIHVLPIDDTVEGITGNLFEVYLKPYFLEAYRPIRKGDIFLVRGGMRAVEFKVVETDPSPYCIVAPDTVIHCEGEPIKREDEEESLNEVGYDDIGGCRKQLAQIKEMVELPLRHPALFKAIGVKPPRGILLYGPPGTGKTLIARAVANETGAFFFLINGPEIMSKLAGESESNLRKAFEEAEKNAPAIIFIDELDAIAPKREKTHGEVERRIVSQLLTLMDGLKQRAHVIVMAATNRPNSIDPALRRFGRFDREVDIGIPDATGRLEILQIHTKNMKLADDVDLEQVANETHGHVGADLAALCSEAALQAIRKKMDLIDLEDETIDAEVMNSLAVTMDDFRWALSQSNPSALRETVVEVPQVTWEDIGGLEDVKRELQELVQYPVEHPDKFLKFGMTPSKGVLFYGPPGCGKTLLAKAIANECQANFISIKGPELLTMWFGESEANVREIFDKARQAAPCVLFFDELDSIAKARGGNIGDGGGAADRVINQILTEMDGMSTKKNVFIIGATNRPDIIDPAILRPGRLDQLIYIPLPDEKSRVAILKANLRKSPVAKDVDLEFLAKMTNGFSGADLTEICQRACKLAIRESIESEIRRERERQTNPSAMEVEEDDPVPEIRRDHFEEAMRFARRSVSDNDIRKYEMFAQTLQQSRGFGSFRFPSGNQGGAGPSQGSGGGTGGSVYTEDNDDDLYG

Chain of UBXD1 PUB (Q9BZV1 172-247): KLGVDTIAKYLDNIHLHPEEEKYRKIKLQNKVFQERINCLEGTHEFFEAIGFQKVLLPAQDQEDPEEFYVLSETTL

For UBXD1 PUB (from UniProt Q9BZV1), the Kd is listed as 12 µM.
